Assay results as given in patent publication US20160208233A1 (Harvard, published 2016).
Values joined by “and” are separate entries in the source; they are usually repeats but may differ in a detail not shown here. Equal values may be shown once. Non-standard residues stand in square brackets, D forms with d. No end group written: not given here. *: point of attachment. Dnp = O=[N+]([O-])c1ccc(*)c([N+](=O)[O-])c1; 2Abz = Nc1ccccc1C(=O)O

Legend:
[1] = biological target: T1, Abz-LPETGK(Dnp)-CONH2
T1 chain: LPETGK

[2] = biological target: T2, Gly-Gly-Gly-COOH
T2 chain: GGG

[3] = biological target: T3, Abz-LAETGK(Dnp)-CONH2
T3 chain: LAETGK

[4] = biological target: T4, Abz-LAETGK(Dnp)-CONH2 (N-terminus assumed; SMILES CC(C)C[C@H](NC(=O)c1ccccc1N)C(=O)N[C@@H](C)C(=O)N[C@@H](CCC(=O)O)C(=O)N[C@H](C(=O)NCC(=O)N[C@@H](CCCCNc1ccc([N+](=O)[O-])cc1[N+](=O)[O-])C(N)=O)[C@@H](C)O); test: cell-based or functional assay
T4 peptide: [2Abz]LAETGK(Dnp)-NH2

[5] = biological target: T5, Abz-LPESGK(Dnp)-CONH2
T5 chain: LPESGK

[6] = biological target: T6, Alexa Fluor 647-LPESGG
T6 chain: KLPESGG

[7] = biological target: T7, human fetuin A, endogenous in human plasma, P02765
T7 chain: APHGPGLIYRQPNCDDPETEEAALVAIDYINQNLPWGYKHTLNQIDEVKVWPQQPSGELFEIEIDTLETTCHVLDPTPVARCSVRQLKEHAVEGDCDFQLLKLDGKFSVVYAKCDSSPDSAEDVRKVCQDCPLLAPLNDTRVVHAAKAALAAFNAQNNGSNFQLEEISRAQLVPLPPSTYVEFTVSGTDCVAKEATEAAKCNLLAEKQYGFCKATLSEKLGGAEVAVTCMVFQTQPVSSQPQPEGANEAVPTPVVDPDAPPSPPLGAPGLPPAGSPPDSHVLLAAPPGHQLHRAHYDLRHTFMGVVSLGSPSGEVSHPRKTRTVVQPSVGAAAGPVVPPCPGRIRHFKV

[8] = biological target: T8, Abz-LPEAGK(Dnp)-CONH2
T8 chain: LPEAGK

[9] = biological target: T9, Abz-LPECGK(Dnp)-CONH2
T9 chain: LPECGK

[10] = biological target: T10, Alexa Fluor 488-LAETGG
T10 chain: KLAETGG

B1: eSrtA(2A-5) (protein)
chain: QAKPQIPKDKSKVAGYIEIPDADIKEPVYPGPATREQLNHGVSFHEENESLDDQNISIAGHTFIDRPNYQFTNLKAAKIGSMVYFKVGNETRKYKMTSIRNVRPTAVEVLDEQKGKDKQLTLVTCDDYNEETGVWETRKIFVATEVK
In the case of B1, the Km, LxExG [1] is reported as 4.9 mM, the kcat/Km (Hz/M) [1] is reported as 28.1 Hz/M and the Km, GGG (uM); with LAETG peptide [2] is reported as 2810 µM. The Km, LxExG [3] was 0.433 mM, the “increase in kcat/Km, LAETG substrate against LPETG substrate” value [3] was “from ˜40-fold (2Ar4) to ˜125-fold (2Ar5) increase in kcat/Km” and the “increased affinity for the LAETG substrate as compared to the LPETG substrate” value [3] was “from ˜61 (2A.6c) to ˜116fold (2Ar5)”. It also gave a kcat/Km (Hz/M) [3] of 3260 Hz/M and a specificity (relative cat. Efficiency, fold), LAETG over LPETG [3] of 116 fold.

B2: eSrtA(2A-3.5) (enzyme)
chain: QAKPQIPKDKSKVAGYIEIPDADIKEPVYPGPATREQLNRGVSFAEENESLDDQNISIAGHTFIDRPNYQFTNLKAAKKGSMVYFKVGNETRKYKMTSIRNVRPTAVEILDEQKGKDKQLTLFTCDDYNEETGVWETRKIFVATEVK
In the case of B2, the Avg KM [1] is reported as 3.75 mM, the Avg kcat/KM [1] is reported as 406 and the Km, LxExG [1] is reported as 4.11 mM. The Specificity (relative catalytic efficiency, fold), LPETG over LAETG [1] was 2.25 fold, the kcat/Km (Hz/M) [1] was 386 Hz/M and the Avg KM [3] was 6.37 mM. The Avg kcat/KM [3] was 180, the Km, LxExG [3] was 7.16 mM and the kcat/Km (Hz/M) [3] was 175 Hz/M. For the same binder, the “specificity (relative cat. Efficiency, fold), by the kcat/Km cells LPETG over LAETG” value [4] was 2.21 fold.

B3: 4S.6B (protein)
chain: QAKPQIPKDKSKVAGYIEIPDADIKEPVYPGPATREQLDRGVSFVEENESLDDQNISISGHTAIDRPNYQFTNLPAAKKGSMVYFKVGNETRKYKMTSIRNVKPTAVEVLDEQKGKDKQLTLVTCDDYNPETGVWETRKIFVATEVK
For B3, the Km, LxExG [1] was 0.238 mM, the kcat/Km (Hz/M) [1] was 4550 Hz/M and the Km,GGG (uM); with LPESG peptide [2] was 15700 µM. For the same binder, the Km, LxExG [5] was 0.312 mM, the “increased affinity for the LPESG substrate as compared to the LPETG substrate” value [5] was “from ˜2-fold (4Sr6b) to ˜8-fold (4Sr5)” and the kcat/Km (Hz/M) [5] was 4140 Hz/M. It also gave a specificity (relative cat. Efficiency, fold), LPESG over LPETG [5] of 0.91 fold.

B4: 4S.6C (protein)
chain: QAKPQIPKDKSKVAGYIEIPDADIKEPVYPGPATREQLDRGVSFVEENESLDDQNISITGHTAIDRPNYQFTNLRAAKKGSMVYFKVGNETRKYKMTSIRNVKPTAVEVLDEQKGKDKQLTLVTCDDYNFETGVWETRKIFVATEVK
B4 gave a Km, LxExG [1] of 0.0161 mM, a kcat/Km (Hz/M) [1] of 235 Hz/M and a Km,GGG (uM); with LPESG peptide [2] of 36000 µM. It also gave a Km, LxExG [5] of 0.156 mM, a kcat/Km (Hz/M) [5] of 4350 Hz/M and a specificity (relative cat. Efficiency, fold), LPESG over LPETG [5] of 18.5 fold.

B5: eSrtA(4S-9) (protein)
chain: QAKPQIPKDKSKVAGYIEIPDADIKEPVYPGPATREQLDRGVCFVEENESLDDQNISITGHTAIDRPNYQFTNLRAAKKGSMVYLKVGNETRKYKMTSIRNVKPTAVEVLDEQKGKDKQLTLVTCDDYNFETGVWETRKIFVATEVK
With B5 the “conjugation of fluorophore-peptide to GGG-diblock (gel fluorescence), cognate pair” value [6] was “Significant peptide-diblock conjugation was observed only for cognate pairs of enzyme and substrate, with no detectable off-target substrate conjugation”, the “modification of GGG-PEG-functionalized 96-well plates (fluorescence), cognate pair” value [6] was “Each enzyme exhibited significant modification only on its cognate substrate” and the Avg KM [1] was 0.0661 mM. It also gave an Avg kcat/KM [1] of 706, a Km [1] of 0.0647 mM and a Rel. Activity (fold below the enzyme's best substrate, LPESG) [1] of 25 fold. For the same binder, the kcat/Km [1] was 720 M⁻¹ s⁻¹, the “conjugation efficiency in human plasma, with supplemental calcium (densitometry)” value [7] was 1.8% or 57.6% by eSrtA(4S-9) in the absence or presence of supplemental calcium, respectively and the “conjugation efficiency in human plasma, without supplemental calcium (densitometry)” value [7] was 1.8% or 57.6% by eSrtA(4S-9) in the absence or presence of supplemental calcium, respectively. The “labeling of human plasma proteins with Gly-Gly-Gly-Lys(Biotin)” value [7] was “identified a single transpeptidation product (FIG. 21C-D), identified by mass spectrometry and confirmed by Western blot as fetuin A”, the Km [8] was 0.154 mM and the kcat/Km [8] was 12300 M⁻¹ s⁻¹. It also gave an Avg KM (uM) for GGG; with LPESG (4S) peptide [2] of 69500 µM, an Avg KM (uM) for GGG; with LPETG (wt) peptide [2] of 97600 µM and an Avg kcat/KM for GGG; with LPESG (4S) peptide [2] of 46.1. For the same binder, the Avg kcat/KM for GGG; with LPETG (wt) peptide [2] was 0.587, the Km,GGG (µM); listed substrate LPEAG [2] was 41000 µM and the Km,GGG (µM); listed substrate LPECG [2] was 55000 µM. It also gave a Km,GGG (µM); listed substrate LPESG [2] of 69000 µM, a Km,GGG (µM); listed substrate LPETG [2] of 98000 µM and a Km [9] of 0.069 mM. The kcat/Km [9] was 74000 M⁻¹ s⁻¹, the “conjugation of fluorophore-peptide to GGG-diblock (gel fluorescence), non-cognate pair” value [10] was “no detectable off-target substrate conjugation” and the “modification of GGG-PEG-functionalized 96-well plates (fluorescence), non-cognate pair: no significant modification” value [10] was “Each enzyme exhibited significant modification only on its cognate substrate”. The Avg KM [5] was 0.123 mM, the Avg kcat/KM [5] was 17600 and the Km [5] was 0.113 mM. For the same binder, the Specificity, LPESG over LPETG [5] was 25 fold, the “difference in transpeptidation of LPESG over LPETG” value [5] was “an approximately 40-fold difference in transpeptidation of LPESG (SEQ ID NO: 3) over LPETG (SEQ ID NO: 4) by eSrtA(4S-9)” and the kcat/Km [5] was 18200 M⁻¹ s⁻¹ and 18000 M⁻¹ s⁻¹. It also gave a Km [3] of 0.387 mM, a Rel. Activity (fold below the enzyme's best substrate, LPESG) [3] of 898 fold and a kcat/Km [3] of 20.2 M⁻¹ s⁻¹.
